Positions count from the first letter of the chain named. Names may count otherwise. Each block holds one binder with its values, some of them ahead of it.
Tests used:
[1] = molecular target: Rpn11 (S. cerevisiae (yeast)) (UniProt P43588)
Rpn11 = Rpn11 (S. cerevisiae (yeast), UniProt P43588 1-306); test: cell-based or functional assay
[2] = molecular target: Rpn11 (S. cerevisiae (yeast)) (UniProt P43588); remark: listed apart in the source
[3] = molecular target: Rpn11 (S. cerevisiae (yeast)) (UniProt P43588); remark: listed apart in the source
[4] = molecular target: T1, Rpn9 (S. cerevisiae (yeast)) (UniProt Q04062)
T1 sequence: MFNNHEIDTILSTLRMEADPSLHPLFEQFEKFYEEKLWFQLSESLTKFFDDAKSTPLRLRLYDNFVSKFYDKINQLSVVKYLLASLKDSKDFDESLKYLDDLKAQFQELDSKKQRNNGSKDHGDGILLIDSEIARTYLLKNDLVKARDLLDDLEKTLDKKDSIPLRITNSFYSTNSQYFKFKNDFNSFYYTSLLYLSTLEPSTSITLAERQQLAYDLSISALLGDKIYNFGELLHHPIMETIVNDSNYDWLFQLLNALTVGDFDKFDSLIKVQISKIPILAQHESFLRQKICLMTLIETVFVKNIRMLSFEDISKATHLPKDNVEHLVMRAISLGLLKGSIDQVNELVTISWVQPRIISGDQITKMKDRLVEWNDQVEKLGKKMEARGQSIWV

Chain of Rpn11 (S. cerevisiae (yeast)) (P43588 whole entry): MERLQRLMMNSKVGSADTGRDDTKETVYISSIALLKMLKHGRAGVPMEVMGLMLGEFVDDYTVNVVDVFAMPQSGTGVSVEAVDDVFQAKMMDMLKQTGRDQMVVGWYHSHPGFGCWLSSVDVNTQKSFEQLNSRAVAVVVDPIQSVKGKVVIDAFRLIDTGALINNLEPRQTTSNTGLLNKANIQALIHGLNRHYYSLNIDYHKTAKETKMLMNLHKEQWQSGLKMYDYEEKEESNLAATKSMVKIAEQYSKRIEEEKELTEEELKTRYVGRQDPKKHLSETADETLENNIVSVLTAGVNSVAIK
Chain of Rpn11 (P43588 whole entry): as above

B2: Rpn5 (natural protein, S. cerevisiae (yeast))
chain: MSRDAPIKADKDYSQILKEEFPKIDSLAQNDCNSALDQLLVLEKKTRQASDLASSKEVLAKIVDLLASRNKWDDLNEQLTLLSKKHGQLKLSIQYMIQKVMEYLKSSKSLDLNTRISVIETIRVVTENKIFVEVERARVTKDLVEIKKEEGKIDEAADILCELQVETYGSMEMSEKIQFILEQMELSILKGDYSQATVLSRKILKKTFKNPKYESLKLEYYNLLVKISLHKREYLEVAQYLQEIYQTDAIKSDEAKWKPVLSHIVYFLVLSPYGNLQNDLIHKIQNDNNLKKLESQESLVKLFTTNELMRWPIVQKTYEPVLNEDDLAFGGEANKHHWEDLQKRVIEHNLRVISEYYSRITLLRLNELLDLTESQTETYISDLVNQGIIYAKVNRPAKIVNFEKPKNSSQLLNEWSHNVDELLEHIETIGHLITKEEIMHGLQAK
Ub-AMC cleavage rate of Rpn11 in the isolated wild-type lid against the free Rpn11/Rpn8 dimer (500 nM enzyme, 2.5 μM Ubiquitin-AMC, 30°C, lid buffer) (Rpn11): 5 fold lower

B3: Rpn5 (N275A) (natural protein)
chain: B2 chain with N275A
Ub-AMC cleavage rate of Rpn11 in the isolated lid with this variant, relative to the isolated MPN heterodimer (% of the isolated MPN heterodimer) [2]: 51

B4: Rpn5 (H282A) (natural protein)
chain: B2 chain with H282A
Ub-AMC cleavage rate of Rpn11 in the isolated lid with this variant, relative to the free MPN heterodimer (% of the free MPN heterodimer) [3]: 31

B5: Rpn5 K283A (natural protein)
chain: B2 chain with K283A
Ub-AMC cleavage rate of Rpn11 in the isolated lid with this variant, relative to the free MPN heterodimer (% of the free MPN heterodimer) [3]: 41

B7: Rpn8 (K86A,K88A) (natural protein)
chain: MSLQHEKVTIAPLVLLSALDHYERTQTKENKRCVGVILGDANSSTIRVTNSFALPFEEDEKNSDVWFLDHNYIENMNEMCKKINAAEALIGWYHSGPKLRASDLKINELFKKYTQNNPLLLIVDVKQQGVGLPTDAYVAIEQVKDDGTSTEKTFLHLPCTIEAEEAEEIGVEHLLRDVRDQAAGGLSIRLTNQLKSLKGLQSKLKDVVEYLDKVINKELPINHTILGKLQDVFNLLPNLGTPDDDEIDVENHDRINISNNLQKALTVKTNDELMVIYISNLVRSIIAFDDLIENKIQNKKIQEQRVKDKQSKVSDDSESESGDKEATAPLIQRKNKKN
Ub-AMC cleavage rate of Rpn11 in the isolated lid with this variant, relative to the isolated MPN heterodimer (% of the isolated MPN heterodimer) [4]: 60

B8: Rpn8 (K88A) (natural protein)
chain: B7 chain with A86K
Ub-AMC cleavage rate of Rpn11 in the isolated lid with this variant, relative to the free MPN heterodimer (% of the free MPN-heterodimer levels) [4]: 45

More lines, now with the values ahead:

Ub-AMC cleavage rate of Rpn11 in the isolated lid with this variant, relative to the isolated Rpn11/Rpn8 dimer (% of the isolated Rpn11/Rpn8 dimer) [1]: 61
B1: Rpn5 (Y273A) (natural protein)
chain: B2 chain with Y273A

Ub-AMC cleavage rate of Rpn11 in the isolated lid with this variant, relative to the free MPN heterodimer (% of the free MPN heterodimer) [3]: 51
B6: Rpn5 (H282A,K283A) (natural protein)
chain: B2 chain with H282A, K283A

Ub-AMC cleavage rate of Rpn11 in the isolated lid with this variant, relative to the isolated MPN heterodimer (% of isolated MPN levels) [4]: 33
B9: Rpn8 (Q115A) (natural protein)
chain: B7 chain with A86K, A88K, Q115A

Ub-AMC cleavage rate of Rpn11 in the isolated lid with this variant, relative to the free MPN heterodimer (% of the free MPN-heterodimer levels) [4]: 33
B10: Rpn8 (K86A) (natural protein)
chain: B7 chain with A88K

From article PMC4749569, “Atomic structure of the 26S proteasome lid reveals the mechanism of deubiquitinase inhibition” (eLife, 2016)
